Laboratory results taken from patent US6500940 (SALK INSTITUTE FOR BIOLOGICAL STUDIES, dated 2002).

Tests used:
[1] = target: human Fas (human) (UniProt P25445); experiment: cell-based or functional assay
[2] = target: T1, human FADD (human, UniProt Q13158 1-208, limits assumed); experiment: co-immunoprecipitation and immunoblot after transient transfection
T1 construct: also called MORT-1
T1 sequence (looked up): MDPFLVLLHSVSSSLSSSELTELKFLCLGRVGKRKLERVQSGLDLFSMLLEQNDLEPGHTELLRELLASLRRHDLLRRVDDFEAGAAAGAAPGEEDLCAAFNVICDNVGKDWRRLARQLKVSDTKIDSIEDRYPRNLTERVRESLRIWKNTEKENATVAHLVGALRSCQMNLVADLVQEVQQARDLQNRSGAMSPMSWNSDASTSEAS
Source text: The interaction of LFG with components of the Fas signaling pathway was investigated. Fas and LFG can be co-immunoprecipitated following transient transfection.

Chain of human Fas (human) (P25445 26-335): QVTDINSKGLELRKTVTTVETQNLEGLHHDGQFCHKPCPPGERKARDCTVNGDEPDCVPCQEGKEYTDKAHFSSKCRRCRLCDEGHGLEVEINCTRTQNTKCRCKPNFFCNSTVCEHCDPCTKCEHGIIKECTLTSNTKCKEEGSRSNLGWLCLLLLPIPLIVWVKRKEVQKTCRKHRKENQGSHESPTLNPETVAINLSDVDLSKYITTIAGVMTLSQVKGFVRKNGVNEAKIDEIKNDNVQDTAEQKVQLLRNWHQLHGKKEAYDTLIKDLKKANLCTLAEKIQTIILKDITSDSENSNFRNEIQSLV

binding result [2] | Molecule | cell survival of HeLa cells 72 hr after treatment with CH11 [1]
– | mouse anti-human Fas agonistic antibody (CH11) | 17%
no binding | amino-terminal myc epitope-tagged LFG (myc-LFG) (other, not shown: small tags and cut ends, Expressed from an expression vector by transient transfection (HeLa, 293 cells) and found by immunoprecipitation and immunoblot; also called lifeguard) MTRGKLSVANKAPGTEGQQQVHGEKKEAPAVPSAPPSYEEATSGEGMKAGAFPPAPTAVPLHPSWAYVDPSSSSSYDNGFPPETMSSSPLSAGMTKKVRRVFVRKVYTILLIQLLVTLAVVALFTFCDPCQGLCSGQPGWYWASYAVFFATYLTLACCSGPRRHFPWNLILLTVFTLSMAYLTGMLSSYYNTTSVLLCLGITALVCLSVTVFSFQTKFDFTSCQGVLFVLLMTLFFSGLILAILLPFQYVPWLHAVYAALGAGVFTLFLALDTQLLMGNRRHSLSPEEYIFGALNIYLDIIYIFTFFLQLFGTNRE | –
